Legend:
MCF-7 cells [1] = assay: KGF-mediated motility of MCF-7 cells with TK signaling pathway inhibitors; format: cell-based, human
Text: (§1) In order to define the signaling pathway involved in the KGF-mediated breast cancer cell motility, we have examined the influence of inhibitors of intermediates in the TK signaling pathway (29, 30, 31). […] In addition, inhibition of Grb2, using a specific Grb2 antisense oligonucleotide, abolished KGF-mediated motility of MCF-7 cells (30, 31). […] Thus, we have observed that the KGFR-Erk1,2 pathway mediates KGF-induced cell motility in ER-positive breast cancer cells. Accordingly, inhibitors targeting the KGF/KGFR/Grb2/Erk1,2 pathway have the potential to be selective therapeutic or chemopreventive modalities against breast cancer metastasis. […] Thus we next considered the design of selective KGFR TK inhibitors to be examined in this study.

MCF-7 human cancer cells = assay: Motility effect of KGF by time-lapse videomicroscopy and culture wounding; format: cell-based
Text: Based on this background information, we examined the motility effect of KGF on human breast cancer cells using time-lapse videomicroscopy and culture wounding (22, 23). […] The KGF motility effect is characterized by a rapid increase in ruffling of the plasma membrane and cell scattering. […] Scanning electron microscopy of KGF-treated MCF-7 cells confirmed dramatic changes in cell morphology consistent with active cell motility (FIG. 1). […] Changes in cell morphology, associated with membrane ruffling and motility are believed to be associated with cytoskeletal reorganization and necessary for adhesion foci, cell surface ligand-receptor binding and regulation of gene transduction (24, 25). Accordingly, we have previously observed a significant alteration in the distribution of f-actin in the cytoplasm of KGF stimulated MCF-7 cells (22).

MCF-7, T-47D, ZR-75-1 = assay: KGF motility response of ER-positive human breast cancer cell lines; format: cell-based; conditions: KGF 10-50 ng/ml
Description: In our previous experiments, all of the estrogen receptor (ER)-positive human breast cancer cell lines examined (MCF-7, T-47D, ZR-75-1) responded to KGF treatment (10-50 ng/ml); however, the responsiveness differed substantially among the cell lines tested.

[2] = test system: MDA-MB-231, SK-BR-3, BT-20; assay: KGF motility response of ER-negative cell lines; format: cell-based, human; conditions: KGF 10-50 ng/ml
MCF-7 cells [3] = assay: MCF-7 nude mouse xenograft model, growth and metastasis (β-gal reporter); format: in vivo, female nu/nu balb/C mice
Description: In these experiments 5×10^6 viable MCF-7 cells, transfected with a β-gal reporter plasmid, were embedded into 0.2 ml Matrigel and implanted into female nude mice. Four animal/group were treated with either KGF (2.5 μg/kg) or control vehicle every other day. After 21 days of treatment the tumor, lung and liver tissue were removed and assayed for b-gal activity using a CRPG substrate for β-gal.
In order to determine the influence of KGF on tumor growth and development in vivo, we recently examined the effect of KGF treatment on the growth and metastasis of MCF-7 cells in a nude mouse xenograft model (27, 28). In these experiments 5×10^6 viable MCF-7 cells, transfected with a β-gal reporter plasmid, were embedded into 0.2 ml Matrigel and implanted into female nu/nu balb/C mice at 6 weeks of age. At 40 days after tumor cell implantation, when approximately 0.5 cm tumor masses were observed, animal were treated with either human recombinant KGF or control vehicle by intra-tumoral injections every other day for a period of 21 days. […] In tumor and tissue samples, collected at the end of the treatment period, the β-gal activity was used as a reported to quantify MCF-7 cells as previously described (27). […] However, in the connective tissue surrounding the tumors and in the lung and liver tissue samples, the β-gal activity was much greater in the KGF treated than in the control samples (FIG. 2) (28). The results of the present study indicate that KGF enhances the migration of breast cancer cells away from the tumor mass, resulting in measurable lung and liver metastasis within the 21 day treatment period.

phospho-Erk1,2 = assay: Western blot of phospho-Erk1,2 in MCF-7 cells; format: cell-based, human; conditions: 50 ng/ml KGF and/or inhibitor for 3 days
Description: The cells were treated with 50 ng/ml KGF and/or signal transduction inhibitor for 3 days. Equal amounts of protein (10 μg) were loaded for SDS-PAGE analysis.
as §1

O=c1c(-c2ccc(O)cc2)coc2cc(O)cc(O)c12 [genistein]
KGF-mediated motility of MCF-7 cells (MCF-7 cells [1]): completely abolished

COc1cccc(-c2cc(=O)c3ccccc3o2)c1N [PD98059]
KGF-mediated motility of MCF-7 cells (MCF-7 cells [1]): completely abolished

B1: KGF: recombinant human Keratinocyte Growth Factor, member of the fibroblast growth factor family (FGF-7) (protein, UniProt P21781 32-194, looked up)
Fibroblast growth factor 7: CNDMTPEQMATNVNCSSPERHTRSYDYMEGGDIRVRRLFCRTQWYLRIDKRGKVKGTQEMKNNYNIMEIRTVAVGIVAIKGVESEFYLAMNKEGKLYAKKECNEDCNFKELILENHYNTYASAKWTHNGGEMFVALNQKGIPVRGKKTKKEQKTAHFLPMAIT
duration of change in morphology of MCF-7 cells (MCF-7 human cancer cells): at least 48 hours
motility effect on MCF-7 cells (MCF-7 human cancer cells): cell scattering motility effect
perimeter index (PI) (MCF-7 human cancer cells): dose-related increase
time of maximal KGF motility effect (MCF-7 human cancer cells): one
response to KGF treatment, ER-positive cell lines (MCF-7, T-47D, ZR-75-1): responded
enhancement in motility, ER-negative cell lines [2]: little or no enhancement
β-gal activity in connective tissue surrounding the tumors, lung and liver (MCF-7 cells [3]; end of 21 day treatment): much greater
β-gal activity in tumor tissue (MCF-7 cells [3]; end of 21 day treatment): significantly less than in the controls
tumor volume (MCF-7 cells [3]; intra-tumoral injections every other day for 21 days, KGF 2.5 μg/kg): the same as in the control tumors
phospho-Erk1,2 protein level (phospho-Erk1,2): increase

Source: patent publication US7960548B2, “Keratinocyte growth factor receptor—tyrosine specific inhibitors for the prevention of cancer metastatis” (The Ohio State University Research Foundation, priority 2005, dated 2011)
